What was measured:
[1] = FFAu profiles in plasma of rats infused with nicotinic acid and different oils; assay type: in vivo; settings: rat plasma
Method: The 5 panels from top to bottom are: A: saline, B: nicotinic acid, C: nicotinic acid+safflower oil, D: nicotinic acid+olive oil, and E: nicotinic acid+coconut oil.
That the FFAu profiles are determined accurately by the method of the present invention is determined by infusing into the blood circulation, of animals and potentially in human subjects, oil/lipid emulsions of known composition, together with heparin. The oils are hydrolyzed by lipoprotein lipases that are released from the capillary endothelial cells by heparin. This lipase activity releases FFAu from the oil that is characteristic of the oil's known composition. Comparing FFAu profiles determined before and after infusion allows determination of the oil composition overlayed on the plasma matrix. Comparing results with different oils and at different levels assesses the validity of the method for determining FFAu profiles in blood samples (for example FIG. 2).
Results are averages of 7 animals for each condition. Nicotinic acid inhibits hormone sensitive lipase (HSL) in adipose tissue resulting in a reduction in circulating FFA levels. Whereas infusion of emulsions of oils of different compositions, together with heparin to activate lipoprotein lipase, will result in the increase of plasma FFA that reflect the composition of the infused oils. When infused together NA and oils results in FFAu profiles that are a conflation of the two effects. […] Adding NA reduces all FFAu except AA which becomes the dominant fraction at nearly 50%. […] NA plus coconut oil results in LAU and MA contributing over 90% of the total FFAu (total FFAu=sum of the concentrations of each of the 9 resolved FFAu). NA plus olive oil results in OA as the dominant FFAu but just barely because NA reduces baseline OA to zero and baseline LA is substantially larger than OA. Thus the FFAu profiles that result from NA plus oil are consistent with the conflation of the two effects. […] Whereas the amount of safflower and coconut oil infused increased the total FFAu to 42 and 92 nM, respectively, consistent with their dominant effects as compared to olive oil (FFAu total=8 nM).

human serum albumin = human serum albumin (Homo sapiens, UniProt P02768); assay: FFAu profile in artificial plasma (FFA mixed with fatty acid free human serum albumin); assay type: binding; settings: artificial plasma: defined FFA mix with fatty acid free HSA in Measuring buffer
From the text: To determine if the low unbound POA levels were due to an interaction with some component of the blood sample matrix an artificial plasma was generated by mixing well defined amounts of the FFA used in Table 4 to fatty acid free human serum albumin in Measuring buffer.

[2] = Probe calibration by titration with FFA / FFA-BSA complexes: AA; assay type: binding; settings: equilibrium dissociation constant of probe for AA
Method: (§1) Calibration: Each probe is calibrated to the extent that the constants in Equation 2 are well determined for all FFAu to be included in profile calculations. Equation 2, which is the form of equation 1 for a single FFAu, relates the FFAu concentration to the equilibrium dissociation constant (Kd), fluorometric constants (Q and Rm) and the measured R values.
(§2) The calibration parameters are determined essentially as described in U.S. Pat. No. 7,601,510 which is incorporated herein by reference and (Huber et al Biochemistry (2006) 45:14263-14274) where the calibrated ADIFAB2 probe was used to generate FFA-BSA complexes with accurate and well buffered FFAu concentrations. To calibrate probes with substantially higher affinities than used in U.S. Pat. No. 7,601,510 and (Huber et al Biochemistry (2006) 45:14263-14274) a boot strap method is used in which a probe having higher affinities is calibrated with ADTFAB2. Such a probe is then used to generate FFA-BSA complexes with FFAu concentrations from 0.1 to 10 nM and these complexes are then used to calibrate other high affinity probes.
(§3) Probe calibration involves titrating the probes with either (i) un-buffered FFA or (ii) BSA-buffered FFA stocks. The un-buffered titrations involve measuring the R-value of a 1 μM probe solution as it is slowly titrated to saturation with small aliquots of a 100 to 250 μM FFA stock (Richieri G V et al. (1992) J Biol Chem 267: 23495-23501, Richieri G V et al. (1999) Mol Cell Biochem 192: 87-94). In this case, the total FFA concentration for each point in the titration is known and a nonlinear fit to the titration data yields the full set of fluorometric constants. In an un-buffered FFA titration, probe concentration is a key variable because the probe binds FFA, directly affecting the FFAu value.
(§4) Alternatively, in a BSA-buffered FFA calibration, the probe solution is titrated with a series of FFA-BSA complexes (600 μM BSA with [FFAu] ranging from 0.1 nM to 4 μM). The titration samples are FFA-BSA complex diluted 50-fold in Measuring Buffer. Probe is added to a concentration of 0.5 μM and the R-value is measured. Because BSA buffers FFAu, its concentration remains constant (i.e. known), even after the addition of probe. […] At least two calibrations with each of the up to 15 different FFA are performed for each probe.
(§5) All of the probes reveal substantial differences for different FFAu and in many cases these differences are related to the aqueous solubility of the FFA. For example, of the FFA in Table 3, SA is the least soluble and MA the most soluble. As discussed in (Richieri G V et al (2000) Biochemistry 39: 7197-7204) the tendency of natural proteins and FABPs, in particular, is for binding constants to be largest (smallest Kd) for the least soluble FFA and conversely for the most soluble FA. In two cases, ADIFAB2 and L11, Kd for SA is substantially the smallest and MA the largest and that pattern is more or less maintained for most of the other probes in Table3 with the exception of L83. In that case MA has the largest affinity while SA's more than 10 fold smaller. To some extent the other calibrations constants follow that behavior; Q is largest for the smallest Kd and Rmax is often largest, so that the probe response tends to be larger for FFA with the larger affinities. The ability to generate mutations that overcome the “natural thermodynamics” allows for probes that have a wide range of specificities and sensitivities than enable the determination of FFAu profiles.

[3] = Probe calibration by titration with FFA / FFA-BSA complexes: DHA; assay type: binding; settings: equilibrium dissociation constant of probe for DHA
Method: as §1, §2, §3, §4, §5

[4] = Probe calibration by titration with FFA / FFA-BSA complexes: LNA; assay type: binding; settings: equilibrium dissociation constant of probe for LNA
Method: as §1, §2, §3, §4, §5

[5] = Probe calibration by titration with FFA / FFA-BSA complexes: LA; assay type: binding; settings: equilibrium dissociation constant of probe for LA
Method: as §1, §2, §3, §4, §5

[6] = Probe calibration by titration with FFA / FFA-BSA complexes: OA; assay type: binding; settings: equilibrium dissociation constant of probe for OA
Method: as §1, §2, §3, §4, §5

[7] = Probe calibration by titration with FFA / FFA-BSA complexes: PA; assay type: binding; settings: equilibrium dissociation constant of probe for PA
Method: as §1, §2, §3, §4, §5

[8] = Probe calibration by titration with FFA / FFA-BSA complexes: POA; assay type: binding; settings: equilibrium dissociation constant of probe for POA
Method: as §1, §2, §3, §4, §5

[9] = Probe calibration by titration with FFA / FFA-BSA complexes: SA; assay type: binding
Method: as §1, §2, §3, §4, §5

[10] = Probe calibration by titration with FFA / FFA-BSA complexes: MA; assay type: binding; settings: equilibrium dissociation constant of probe for MA
Method: as §1, §2, §3, §4, §5

[11] = Probe response (increase in R) to 1 nM SA; assay type: binding; settings: 1 nM of SA, FIG. 1
From the text: The set of probes chosen to determine the profile of a sample depends upon the nature of the sample, the types of FFA expected to be present in the sample and the determination that the chosen probes respond to the expected FFA. In addition, especially for the least abundant FFAu in a sample, the probe's sensitivity for a given FFAu must be sufficient to accurately quantitate the low concentration FFAu, for example less than 50 pM. Sensitivity is a function of the Kd, Q, Ro and Rm parameters. Differences in sensitivity among different FFAu probes are apparent in FIG. 1 where for example for ADIFAB2 (acrylodan labeled at lysine 27), 1 nM of SA produces a 20% increase in R while for L11P7B3V26C the increases is almost 500%. […] In the absence of absolutely specific and sensitive probes the determination of FFAu profiles requires an over determined system, which empirically requires about twice the number of probes as FFAu to obtain accurate profiles. The identity of the set of probes to achieve accurate FFAu profiles is not unique. […]
The response profile is the fluorescence change as evaluated as (R−Ro)/Ro (ΔR/Ro) for each FFAu added as a complex of the FFA and albumin so that the FFAu concentration is clamped or buffered at 1 nM for every FFAu for which a calibration has been performed. […]

Sequence of human serum albumin (P02768 25-609): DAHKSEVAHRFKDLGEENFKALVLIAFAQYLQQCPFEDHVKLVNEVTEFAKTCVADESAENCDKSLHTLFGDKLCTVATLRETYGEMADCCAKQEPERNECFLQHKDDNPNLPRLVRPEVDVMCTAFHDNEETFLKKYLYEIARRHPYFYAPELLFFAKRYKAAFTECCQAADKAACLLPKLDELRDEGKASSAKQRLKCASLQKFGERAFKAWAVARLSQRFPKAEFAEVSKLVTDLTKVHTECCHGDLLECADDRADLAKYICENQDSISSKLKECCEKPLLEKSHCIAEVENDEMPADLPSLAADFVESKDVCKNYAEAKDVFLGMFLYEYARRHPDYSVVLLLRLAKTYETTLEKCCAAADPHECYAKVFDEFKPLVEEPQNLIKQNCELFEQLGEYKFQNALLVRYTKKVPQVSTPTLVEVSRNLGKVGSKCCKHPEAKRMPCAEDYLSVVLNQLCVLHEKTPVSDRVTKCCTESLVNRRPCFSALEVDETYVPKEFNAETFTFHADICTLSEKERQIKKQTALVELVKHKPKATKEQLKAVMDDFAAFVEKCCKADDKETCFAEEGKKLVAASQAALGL

Molecule	AA fraction of FFAu profile [1]	baseline OA [1]	total FFAu ([1]; sum of 9 resolved FFAu, averages of 7 animals)	reduction of total FFAu ([1]; versus saline, no infused oil)	% FFAu (human serum albumin)	Kd [2]	Kd [3]	Kd [4]	Kd [5]	Kd [6]	Kd [7]	Kd [8]	Kd ([9]; equilibrium dissociation constant of probe for SA, read-out: Kd SA)	Kd [10]	increase in R [11]	Kd ([9]; read-out: Kd for SA)
O=C(O)c1cccnc1 [NA, nicotinic acid]	~50%	zero	2 nM	more than 4 fold												
CCCCCC/C=C\CCCCCCCC(=O)O [POA, palmitoleate]					16.9%											
ADIFAB2: acrylodan-labeled (lysine 27) mutant FABP probe: L72A (protein, UniProt P02693 2-132, looked up, variant L72A, acrylodan label on K27, acrylodan-labeled (lysine 27) mutant FABP probe: L72A) Fatty acid-binding protein, …: AFDGTWKVDRNENYEKFMEKMGINVVKRKLGAHDNLKLTITQEGNKFTVKESSNFRNIDVVFELGVDFAYSAADGTELTGTWTMEGNKLVGKFKRVDNGKELIAVREISGNELIQTYTYEGVEAKRIFKKE						167 nM	253 nM	237 nM	101 nM	32 nM	21.4 nM	257 nM	9.3 nM	324 nM	20%	
L11P7 B3 V26C: acrylodan-labeled mutant FABP probe: M21F, V26C, L72A, L78V, L102V (protein, UniProt P02693 2-132, looked up, variant M21F V26C L72A L78V L102V, acrylodan label, acrylodan-labeled mutant FABP probe: M21F, V26C, L72A, L78V, L102V) Fatty acid-binding protein, …: AFDGTWKVDRNENYEKFMEKFGINVCKRKLGAHDNLKLTITQEGNKFTVKESSNFRNIDVVFELGVDFAYSAADGTEVTGTWTMEGNKLVGKFKRVDNGKEVIAVREISGNELIQTYTYEGVEAKRIFKKE						6.1 nM	7.5 nM	11.2 nM	3.9 nM	1 nM	1.1 nM	11.1 nM		18.8 nM	~500%	0.25 nM

From patent US10705101B2, “Determination of the unbound free fatty acid profiles in biological and industrial specimens” (priority 2013, dated 2020)
